PMC4820698

Key:
[1] = target: MBP-5-HT3A-ICD fusion protein (cytoplasmic domain of the mouse 5-HT3A receptor fused to the C-terminus of maltose binding protein) (mouse); experiment: SEC; Superdex 200 10/300 GL, 20 mM HEPES, 150 mM NaCl, 0.02% NaN3, pH 7.4; weight from calibration with standard proteins
[2] = target: MBP-5-HT3A-ICD fusion protein (cytoplasmic domain of the mouse 5-HT3A receptor fused to the C-terminus of maltose binding protein) (mouse); experiment: SEC-MALS; Superdex 200 HR 10/300 GL, 20 mM HEPES, 150 mM NaCl, 5 mM maltose, 0.01% NaN3, pH 7.4, ambient temperature, 0.1-1.0 mg protein loaded
[3] = target: MBP-5-HT3A-ICD fusion protein (cytoplasmic domain of the mouse 5-HT3A receptor fused to the C-terminus of maltose binding protein) (mouse); experiment: cross-linking; glutaraldehyde by vapor diffusion at 30 °C, 0.5 μg purified protein in buffer B; resolved by SDS-PAGE with Western blot (anti-MBP) or denaturing capillary gel electrophoresis

stoichiometry N [1]: 5 | stoichiometry N [2]: 5 | stoichiometry N [3]: 5
Substance: MBP-5-HT3A-ICD fusion protein (cytoplasmic domain of the mouse 5-HT3A receptor fused to the C-terminus of maltose binding protein) (domain or fragment)
